Read-outs that look alike come from different tables or passages of the source. Primed or numbered codes have the meaning given here. Ends that are not written are not given here. * marks the point of attachment. fluorescein = Lys* = fluorescein containing lysine; fluorescein″ = fluorescein-labelled lysine (Lys*)
Tests used:
[1] = system: malignant glioma cell line (U-87MG); test: Cell viability of U-87MG glioma cells, modified MTT assay, 24 hours; type: cell-based; settings: U-87MG cell viability (FIG. 1)
Method: As a model for cancer, the malignant glioma cell line (U-87MG, ATCC #HTB-14) was grown and maintained in Eagles Minimum Essential Media with 10% fetal bovine serum, 1% penicillin/streptomycin, sodium pyruvate (110 mg/L), L-Glutamine (292 mg/L), and nonessential amino acids at 37° C. in 5% CO2. One day prior to the test, cells were plated at 50,000 cells/mL in supplemented media on 96-well plates. Peptides at different concentrations were incubated with cells for 24 hours. Cell viability, with respect to the untreated control, was determined using a modified MTT assay (CELL TITER […] 96® Aqueous One Solution Cell Proliferation Assay; PROMEGA, Madison, Wis.) (Barltrop, et al. (1991) Bioorg. Med. Chem. Lett. 1:661).
To synthesize Pt-complexes, peptides were dissolved in water and equimolar amounts of potassium tetrachloroplatinate (K2PtCl4) (Acros Organics, Morris Plains, N.J.) were added to each peptide solution. The solutions were stirred for 20 hours and lyophilized.

MMP-2 [2] = target: T1, MMP-2 (Homo sapiens, UniProt P08253); settings: MMP-2, Turk et al. (2001); cited from earlier work
T1 construct: purchased CALBIOCHEM (San Diego, Calif.)
T1 sequence (P08253 110-660): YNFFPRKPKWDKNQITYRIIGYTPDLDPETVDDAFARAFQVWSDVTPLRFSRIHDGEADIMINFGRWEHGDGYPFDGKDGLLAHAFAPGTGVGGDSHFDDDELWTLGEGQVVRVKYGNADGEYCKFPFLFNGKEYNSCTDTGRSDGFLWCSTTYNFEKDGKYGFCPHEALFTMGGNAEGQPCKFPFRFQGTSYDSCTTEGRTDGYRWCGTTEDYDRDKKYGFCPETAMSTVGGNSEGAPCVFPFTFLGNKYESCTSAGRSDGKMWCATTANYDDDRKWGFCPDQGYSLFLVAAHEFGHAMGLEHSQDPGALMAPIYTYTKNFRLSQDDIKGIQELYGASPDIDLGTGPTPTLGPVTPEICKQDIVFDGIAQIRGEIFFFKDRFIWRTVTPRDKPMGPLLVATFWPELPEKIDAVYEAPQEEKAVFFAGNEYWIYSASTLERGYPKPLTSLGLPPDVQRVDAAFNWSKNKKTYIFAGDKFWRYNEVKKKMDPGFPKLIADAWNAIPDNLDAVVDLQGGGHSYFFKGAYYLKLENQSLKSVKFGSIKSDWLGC

MMP-9 = target: T2, MMP-9 (Homo sapiens, UniProt P14780); test: Peptide cleavage by activated MMP-9, HPLC; type: biochemical; settings: for Km / Vmax / kcat: MMP-9 10 nM, protease buffer pH 7.4
T2 construct: purchased CALBIOCHEM (San Diego, Calif.)
T2 sequence (P14780 107-707 limits assumed): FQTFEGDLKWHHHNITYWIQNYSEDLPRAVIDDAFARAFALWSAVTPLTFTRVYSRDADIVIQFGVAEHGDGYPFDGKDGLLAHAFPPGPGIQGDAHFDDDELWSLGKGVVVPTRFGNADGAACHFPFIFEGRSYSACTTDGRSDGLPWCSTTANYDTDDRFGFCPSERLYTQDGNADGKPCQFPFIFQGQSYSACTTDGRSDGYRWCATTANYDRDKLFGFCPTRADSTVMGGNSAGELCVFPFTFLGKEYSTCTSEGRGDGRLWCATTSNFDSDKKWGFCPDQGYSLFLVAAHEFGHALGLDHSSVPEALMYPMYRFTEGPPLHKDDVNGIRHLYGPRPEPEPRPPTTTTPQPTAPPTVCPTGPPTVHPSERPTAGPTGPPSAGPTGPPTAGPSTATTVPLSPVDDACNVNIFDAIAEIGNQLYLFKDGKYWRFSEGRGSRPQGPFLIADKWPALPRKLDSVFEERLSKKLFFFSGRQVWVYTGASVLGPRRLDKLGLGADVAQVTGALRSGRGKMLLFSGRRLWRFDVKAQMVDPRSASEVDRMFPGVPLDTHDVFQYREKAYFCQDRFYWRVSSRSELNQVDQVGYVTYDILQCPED
Method: (§1) Prospective MMP substrate peptides, Lys*-Pro-Ala-Gly-Leu-Leu-Gly-Cys (SEQ ID NO:2), Lys*-Ala-Gly-Leu-Leu-Cys (SEQ ID NO:32), and Lys*-Gly-Leu-Cys (SEQ ID NO:33), were dissolved in a protease buffer containing Tris-HCl (50 mM), NaCl (0.2 M), CaCl2.2H2O (10 mM), BRIJ-35 (0.05%) and ZnSO4.7H2O (50 μM) (pH=7.4). Activated MMP-2 or MMP-9 was added to the peptide solution at a final concentration of 10 nM. At predetermined time intervals, the reaction was stopped by adding EDTA solution (25 mM). Samples were analyzed using reverse phase high pressure liquid chromatography (HPLC). The HPLC system was composed of a gradient pump connected to a scanning fluorescence detector and a photodiode array detector. Peptides were separated on a ZORBAX Extend-C18 (80 Å, 3.6 μm, 4.6 mm×150 mm) column (Agilent Technologies, Palo Alto, Calif.) using a gradient of 30%-70% of 0.1% trifluoroacetic acid in acetonitrile against 0.1% trifluoroacetic acid in water over a period of 15 minutes at a flow rate of 1 mL/minute. The expected cleaved fragments, Lys*-Pro-Ala-Gly (SEQ ID NO:34), Lys*-Ala-Gly, and Lys*-Gly, were synthesized to confirm HPLC retention times. The HPLC retention time of each fragment was compared to that of the cleaved fragment and the intact peptide using the HPLC conditions described above.

MMP-2 [3] = target: T1, MMP-2; test: Peptide cleavage by activated MMP-2, HPLC; type: biochemical; settings: for Km / Vmax / kcat: MMP-2 10 nM, protease buffer pH 7.4
Method: as §1

Row | Molecule | IC50 [1] | cleavage site (MMP-2 [2]) | Km (MMP-9) | Vmax (MMP-9) | kcat (MMP-9) | Km (MMP-2 [3]) | Vmax (MMP-2 [3]) | kcat (MMP-2 [3]) | cleavage site (MMP-9; cleaved by MMP-9, HPLC comparison with synthesized fragment) | cleavage site (MMP-2 [3]; cleaved by MMP-2, HPLC comparison with synthesized fragment)
1 | [Cl][Pt-2]([Cl])([Cl])[Cl].[K+].[K+] [K2PtCl4, potassium tetrachloroplatinate] | 70.7 ± 15 µM |  |  |  |  |  |  |  |  | 
2 | N.N.[Cl][Pt][Cl] [cisplatin] | 46.9 ± 15 µM |  |  |  |  |  |  |  |  | 
3 | GPAGLLG [parent peptide from which the three peptides were designed] |  | cleaved between glycine and leucine |  |  |  |  |  |  |  | 
4 | Lys*-Ala-Gly-Leu-Leu-Cys (K(fluorescein)AGLLC) [prospective MMP substrate peptide with fluorescein containing lysine (Lys*)] |  |  | 160 ± 100 µM | 0.99 ± 0.2 (M/s) × 10^−9 | 0.04 ± 0.01 s⁻¹ | 1400 ± 400 µM | 6.02 ± 2.1 (M/s) × 10^−9 | 0.24 ± 0.08 s⁻¹ |  | 
5 | Lys*-Gly-Leu-Cys (K(fluorescein″)GLC) [prospective MMP substrate peptide with fluorescein containing lysine (Lys*)] |  |  | 600 ± 100 µM | 5.3 ± 1 (M/s) × 10^−9 | 0.21 ± 0.04 s⁻¹ | 81 ± 20 µM | 0.88 ± 0.1 (M/s) × 10^−9 | 0.035 ± 0.006 s⁻¹ |  | 
6 | Lys*-Pro-Ala-Gly-Leu-Leu-Gly-Cys (K(fluorescein)PAGLLGC) [prospective MMP substrate peptide with fluorescein containing lysine (Lys*)] |  |  | 400 ± 100 µM | 240 ± 50 (M/s) × 10^−9 | 9.6 ± 2.1 s⁻¹ | 1000 ± 500 µM | 270 ± 120 (M/s) × 10^−9 | 10.7 ± 4.8 s⁻¹ | cleaved between glycine and leucine | cleaved between glycine and leucine
